Assay results taken from publication PMC12691745.

Target: T1, proPpiA (UniProt P0AFL3)
T1 sequence: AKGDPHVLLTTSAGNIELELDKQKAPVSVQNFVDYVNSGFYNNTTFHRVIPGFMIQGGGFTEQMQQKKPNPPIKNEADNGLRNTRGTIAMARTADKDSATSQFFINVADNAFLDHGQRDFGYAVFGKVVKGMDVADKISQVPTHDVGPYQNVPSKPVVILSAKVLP

Chain of SecB (P0AG86 whole entry): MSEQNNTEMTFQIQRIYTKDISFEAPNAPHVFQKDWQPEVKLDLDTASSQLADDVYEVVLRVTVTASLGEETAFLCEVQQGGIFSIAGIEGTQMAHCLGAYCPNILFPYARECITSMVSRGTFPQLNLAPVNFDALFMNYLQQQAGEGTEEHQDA

SecB (from UniProt P0AG86 1-155) (natural protein)
solubility of proPpiA after dilution from urea (18 µM protein, 30 min, centrifugation at 20,000× g), with 108 µM SecB; buffer control ~30% soluble: 70%
